Results published in patent US20050221381A1, “Method for isolating ligands” (priority 2002, published 2005).
Read-outs that look alike come from different tables or passages of the source.

Key:
[1] = test system: PBMC (CD4 and CD8 positive T-cell compartments); test: Intracellular IFN-γ staining combined with surface staining for CD4, CD8, CD69 (FACS); type: cell-based, human; details: donor 10687, peptide 80 μg/ml (FIG. 11)
Method: To distinguish between CD8-positive CTL mediated or CD4-positive HTL mediated reactivity, intracellular cytokine staining combined with staining for surface markers was performed: after thawing, PBMNC were kept overnight (37° C., 5% CO2) in RPMI1640 with 10% human serum type AB (BioWhittaker). Next day aliquots of 2 million PBMNC were incubated with peptide (80 μg/ml) or Concanavalin A (SIGMA). After 1 h, 10 μg/ml brefeldin A (SIGMA) were added and incubation was continued for 5 hours. Surface staining for CD4 (phycoerythrin), CD8 (cychrome), CD69 (allophycocyanine) was done with antibodies labelled as indicated (Pharmingen, San Diego, Calif., USA). After fixation with 1% para-formaldehyde in PBS, cells were permeabilized by incubating for 15 min in 0.5% BSA/0.1% Na-azide/0.1% saponin in PBS. Intracellular cytokines were stained with anti-IFN-γ (FITC) antibody 4S.B3 (Pharmingen). Samples (100,000 events in the lymphocyte gate) were read on a FACScalibur (Becton Dickinson).
FIG. 11: Confirmation of simultaneous CD4+ and CD8+ T-cell responses against CMVpp65 15mers 469, 470 by intracellular IFN-γ staining. PBMC from 2 donors (10687, 10788) were stimulated with either ConA as positive control (1st column), 15mers containing both putative class I and class II epitopes (columns 2 and 3) or medium as negative control (right column). Cells were stained for intracellular IFN-γ (x-axis) or surface the T-cell differentiation markers CD4 or CD8 (y-axis). Percentage in upper-right quadrant is indicated, numbers significant over background are shown boldface.

[2] = test system: CD4+ T cells; details: healthy, CMV-exposed human subjects; partially or fully identical sequences; cited from earlier work
[3] = test system: HLA-DRB1*0401-transgenic mice splenocytes; type: in vivo, mouse; set-up: key to DRB1*0401 mice total SC (T cell response) / DRB1*0401 mice CD4+ (T cell response): −: no binding/T cell response; +/−: weak binding/T cell response; +: intermediate binding/T cell response; ++: strong binding/T cell response
[4] = molecular target: T1, soluble DRB1*0101 molecules (Homo sapiens, UniProt P01903+P01911, A100R/D57E/F55L/F60I/F76Y/I96L/L162R/M171V/P40L/Q125E/R42F/V115G/Y59C); test: Peptide binding assay, SDS-stability assay; set-up: key: −: no binding/T cell response; +/−: weak binding/T cell response; +: intermediate binding/T cell response; ++: strong binding/T cell response; details: soluble DRB1*0101 molecules
T1 construct: Soluble HLA class I A*0201 and HLA class II DRA1*0101/DRB1*0101/Ii, DRA1*0101/DRB1*0401/Ii and DRA1*0101/DRB1*0404/Ii molecules were expressed in SC-2 cells; made in house; host or cells: SC-2 cells

[5] = test system: DRB1*0401, DRB1*0101, DRB1*0404, DRB1*0701 and DRB1*1101; test: Binding to soluble HLA molecules of different allels (promiscuity); set-up: species or system human
Method: In peptide binding reactions HLA molecules were used in a concentration of 0.5 μM, and each single peptide was added in 10-fold molar excess (5 μM) if not mentioned differently. […] The reaction was performed in PBS buffer (pH 7.4) at room temperature for 48 hours in the presence of a protease inhibitor cocktail (Roche) and 0.1% octyl-b-D-glucopyranoside (Sigma).
Peptide binding was evaluated in an SDS-stability assay (Gorga et al., 1987): trimeric HLA class II ab-peptide complexes are resistant to SDS and consequently appear as ˜60 kDa band in SDS-PAGE Western blot analysis. Individual HLA class II α and β chains not stabilized by a peptide binding with intermediate to high affinity migrate as ˜35 kDa and ˜30 kDa bands, respectively.
(§1) The binding affinities to DRB1*0701 and DRB1*1101 were tested by a peptide-competition assay (Reay et al., 1992). Briefly, binding of the biotinylated CLIP peptide (reference peptide) has been used for monitoring of HLA:peptide complex formation. […] In the case of lower affinity peptides they should be added in excess to the reference peptide to compete for occupancy of HLA binding grove. […] Alternatively, comparing of the amount of reference peptide bound to HLA molecules in the presence or absence of competitor peptide one can determine the binding activity of the peptide of interest.
(§2) In the present peptide-competition assay conditions of peptide binding were similar to described above. Soluble HLA molecules were used in the concentration of 0.5 μM and biotinylated CLIP was added to all samples in the final concentration of 2 μM. Competitor peptides were added in three different concentrations: 0.25, 5 and 100 μM. Binding reaction was performed in PBS buffer (pH 7.4) for 18 hours at 37° C. […] Briefly, MaxiSorb 96-well plates (Nunc, Denmark) were coated with mouse anti-αβ antibody L243 (purified from ATCC HB-55) by overnight incubation with 50 μl of 10 μg/ml dilution in PBS at 4° C. Non-specific binding to the plastic was blocked by incubation with T-PBS containing 3% of BSA for 2 hours at 37° C. and binding reactions were then “captured” for 2 hours at room temperature. […] The optical density at 405 nm was measured on a microplate reader SUNRISE (Tecan).
Some of the identified DRB1*0401 binding peptides, as well as others chosen by prediction algorithms were also tested for binding to soluble HLA molecules of different allels: DRB1*0101, DRB1*0404, DRB1*0701 and DRB1*1101 (Table 3).

[6] = molecular target: T2, soluble DRB1*0401 molecules (DR4) (Homo sapiens, UniProt P01903+P01911, A100K/A169T/F76Y/I96L/K127E/L162R/M171V/N62H/P40V/Q125Y/R42H/S133A/S149N/S66Y/V115G/V209L/W38E); type: binding; set-up: key: −: no binding; +/−: weak binding; +: intermediate binding; ++: strong binding; details: individual pp65 15mer, SDS-stability assay
T2 construct: Soluble HLA class I A*0201 and HLA class II DRA1*0101/DRB1*0101/Ii, DRA1*0101/DRB1*0401/Ii and DRA1*0101/DRB1*0404/Ii molecules were expressed in SC-2 cells; made in house; host or cells: SC-2 cells

[7] = molecular target: T2, soluble DRB1*0401 molecules (DR4); type: binding; set-up: key to Binding to DRB1 *0401: −: no binding/T cell response; +/−: weak binding/T cell response; +: intermediate binding/T cell response; ++: strong binding/T cell response; details: soluble DRB1*0401 molecules
[8] = molecular target: T3, soluble DRB1*0404 molecules (Homo sapiens, UniProt P01903+P01911, A100R/A169T/F76Y/I96L/K127E/L162R/M171V/N62H/P40V/Q125Y/R42H/S133A/S149N/S66Y/V209L/W38E); test: Peptide binding assay, SDS-stability assay; set-up: key: −: no binding/T cell response; +/−: weak binding/T cell response; +: intermediate binding/T cell response; ++: strong binding/T cell response; details: soluble DRB1*0404 molecules
T3 construct: Soluble HLA class I A*0201 and HLA class II DRA1*0101/DRB1*0101/Ii, DRA1*0101/DRB1*0401/Ii and DRA1*0101/DRB1*0404/Ii molecules were expressed in SC-2 cells; made in house; host or cells: SC-2 cells

[9] = molecular target: DRB1*0701 (Homo sapiens, UniProt P01903+P01911, A100R/A102G/A103Q/D57E/D86V/E43K/F76Y/K127E/L162R/M171V/P40G/Q125H/Q99D/R33Q/R42Y/R54Q/S133A/S66F/T210M/V115G/Y107V/Y59L/Y89S); test: Peptide-competition assay with biotinylated CLIP peptide (ELISA); type: binding; set-up: key: −: no binding/T cell response; +/−: weak binding/T cell response; +: intermediate binding/T cell response; ++: strong binding/T cell response; details: DRB1*0701
Method: as §1, §2

[10] = molecular target: DRB1*1101 (Homo sapiens, UniProt P01903+P01911, A100R/A169T/A87E/I96F/K41T/L162R/M171V/P40S/Q125H/Q178H/Q39Y/Q99D/R42S/S66Y/T262R/V115G/W38E); test: as above; type: binding; set-up: key: −: no binding/T cell response; +/−: weak binding/T cell response; +: intermediate binding/T cell response; ++: strong binding/T cell response; details: DRB1*1101
Method: as §1, §2

[11] = molecular target: T2, soluble DRB1*0401 molecules (DR4); type: binding; set-up: key: +++: high binding affinity; ++: moderate binding affinity; +: low binding affinity; −: no binding; details: individual pp65 15mer, SDS-stability assay
[12] = molecular target: T1, soluble DRB1*0101 molecules; test: Peptide binding assay, SDS-stability assay; set-up: key: +++: high binding affinity; ++: moderate binding affinity; +: low binding affinity; −: no binding; details: individual pp65 15mer
[13] = test system: PBMC from CMV seropositive donors; type: cell-based, human
[14] = molecular target: T3, soluble DRB1*0404 molecules; test: Peptide binding assay, SDS-stability assay; set-up: key: +++: high binding affinity; ++: moderate binding affinity; +: low binding affinity; −: no binding; details: individual pp65 15mer
[15] = IFN-gamma ELISpot, enriched CD4+ fraction of splenocytes of HLA-DR4 transgenic mice vaccinated with the longer peptide, ex vivo re-stimulation
[16] = IFN-gamma ELISpot, total splenocytes of HLA-DR4 transgenic mice vaccinated with the longer peptide, ex vivo re-stimulation

Sequence	Specific CD4+ T cells response described earlier [2]	DRB1*0401 mice CD4+ (T cell response) [3, 15]	DRB1*0401 mice total SC (T cell response) [3, 16]	Binding to DRB1*0401 [6]	Binding to DRB1 *0401 [7]	Binding to DRB1*0401 [11]	Binding to DRB1*0101 [12]	further results
AGILARNLVPMVATV [Peptide 489]								Intracellular IFN-γ in CD4 and CD8 positive T-cell compartments [1]: only CD8 mediated IFN-γ secretion
EPDVYYTSAFVFPTK [Peptide 177]	capable to evoke specific CD4+ T cells response	+	+	+	+			Binding to DRB1*0101 [4]: ++; Affinity for several HLA molecules (promiscuity) [5]: affinity for at least two HLA molecules; Binding to DRB1*0404 [8]: −; Binding to DRB1 *0701 [9]: −; Binding to DRB1 1101 [10]: +
EPMSIYVYALPLKML [Peptide 107]						−	−	
GGAIAGASTSAGRKR [Peptide 423]						−		Induction of IFN-gamma secretion in T cells / PBMC from CMV seropositive donors [13]: can induce functional, IFN-gamma secreting T cells in humans; Binding to DRB1*0404 [14]: −
IYVYALPLKMLNIPS [Peptide 111]						−	−	
KEPDVYYTSAFVFPT [Peptide 176]		+	+	+/−	+/−		−	
LKYQEFFWDANDIYR [Peptide 508]	capable to evoke specific CD4+ T cells response	++	++	+/−	+/−			
NLKYQEFFWDANDIY [Peptide 507]	capable to evoke specific CD4+ T cells response	+	++	+/−	+/−			Binding to DRB1*0101 [4]: −; Binding to DRB1*0404 [8]: −; Binding to DRB1 *0701 [9]: −; Binding to DRB1 1101 [10]: −
PQYSEHPTFTSQYRI [Peptide 361]	capable to evoke specific CD4+ T cells response							DRB1*0401 mice CD4+ (T cell response) ([3]; mouse, in vivo): ++; DRB1*0401 mice total SC (T cell response) ([3]; mouse, in vivo, sc): +
QWKEPDVYYTSAFVF [Peptide 174]		+/−	+/−		−	−	−	
TDEDSDNEIHNPAVF [Peptide 468]						−		Binding to DRB1*0404 [14]: −
